Experimental data reported in PMC8301065.
One block for each substance: values may come before it.

Tests used:
[1] = biological target: human cardiac α-actin mutant p.E361G (human)
[2] = biological target: human cardiac α-actin mutant p.R312H (human)
[3] = biological target: human cardiac muscle wild-type α-actin (recombinant) (human) (UniProt P68032)
[4] = biological target: human cardiac α-actin mutant p.A295S (human)
[5] = biological target: human cardiac muscle wild-type α-actin (recombinant) (human) (UniProt P68032); assay: pyrene-actin polymerization assay; 5 µM c-actin with pyrene-labeled skeletal muscle actin added at 20:1, G-buffer; polymerization induced by 2 mM MgCl2 and 0.1 M KCl; rise of pyrene fluorescence; control without nucleator

Chain of FH2-domain of the formin mDia3 (O70566 625-1025): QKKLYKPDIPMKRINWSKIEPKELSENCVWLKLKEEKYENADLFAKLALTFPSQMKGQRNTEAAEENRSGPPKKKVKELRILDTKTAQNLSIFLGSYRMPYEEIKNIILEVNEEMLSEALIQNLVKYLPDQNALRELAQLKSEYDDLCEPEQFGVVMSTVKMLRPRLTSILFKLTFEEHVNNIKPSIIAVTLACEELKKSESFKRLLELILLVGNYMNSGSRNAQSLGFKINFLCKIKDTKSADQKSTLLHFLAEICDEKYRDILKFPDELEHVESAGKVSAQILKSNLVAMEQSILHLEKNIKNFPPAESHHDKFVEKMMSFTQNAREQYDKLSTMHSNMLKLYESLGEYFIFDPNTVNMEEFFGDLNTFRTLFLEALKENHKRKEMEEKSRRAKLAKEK

half time of polymerization (t1/2) of 5 µM c-actin with 50 nM Arp2/3 complex, pyrene-actin assay (control without nucleator 4.0 min) [1]: 1.8 min | half time of polymerization (t1/2) of 5 µM c-actin with 50 nM Arp2/3 complex, pyrene-actin assay (control without nucleator 13.8 min) [2]: 1 min | half time of polymerization (t1/2) of 5 µM c-actin with 50 nM Arp2/3 complex, pyrene-actin assay (control without nucleator 8.6 min) [3]: 2.1 min | half time of polymerization (t1/2) of 5 µM c-actin with 50 nM Arp2/3 complex, pyrene-actin assay (control without nucleator 12.2 min) [4]: 1.2 min
Substance: Arp2/3 complex isolated from Acanthameba castellani

half time of polymerization (t1/2) of 5 µM c-actin with 50 nM mDia3-FH2, pyrene-actin assay (control without nucleator 4.0 min) [1]: 2.9 min | half time of polymerization (t1/2) of 5 µM c-actin with 50 nM mDia3-FH2, pyrene-actin assay (control without nucleator 13.8 min) [2]: 4.1 min | half time of polymerization (t1/2) of 5 µM c-actin with 50 nM mDia3-FH2, pyrene-actin assay (control without nucleator 8.6 min) [3]: 6.9 min | half time of polymerization (t1/2) of 5 µM c-actin with 50 nM mDia3-FH2, pyrene-actin assay (control without nucleator 12.2 min) [4]: 3.5 min
Substance: FH2-domain of the formin mDia3 (from UniProt O70566 625-1025) (domain or fragment)

half time of polymerization (t1/2) [5]: 8.6 min
Substance: human cardiac muscle wild-type α-actin (recombinant) (from UniProt P68032 1-377) (natural protein)
